The values that follow come from the domain aggregation screens of Martell et al. (2025).

The nature of this data set: soluble fraction after stress (log2 fold change); higher = more stays soluble; pooled small domains, quantitative proteomics. The note with it: stress: 50 degC. A digest of the protocol: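 The measure of aggregation propensity here is the base-two logarithm of the fold change in the soluble amount of each protein after stress. A higher value means more of that protein stays in solution. Stress was applied at 50°C to pooled libraries of small protein domains, read out by high-throughput quantitative proteomics.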
With “HMTFFDDLLYQAKAAVDNDPSIKPSLHNRAIIEILYQQGVFNMKNAVEHVAELLEISKNTVYLHLRSVKG”, the “soluble fraction (log2)” value was -0.973.

For “HMTFGEMLQYTNRLKEILESNAPQSIKDRRLANLMTDLEQAYGIPILRDQEFEKENPFLMQLYRTIS”, the “soluble fraction (log2)” value was -2.06.

Regarding “HMTFKDIMENYTISRIENTINSAVVFLDEINAYITIDKTQLPSNLRYDTDSKIMASQIPDDAKIKYFMIYW”, the “soluble fraction (log2)” value was -1.99.

In the case of “HMTFPIDINRADTEQLTALPGIGEVLAKRIIAYREENGSFLSTDELKNVEGIGEKRLEAIVDLITIG”, the “soluble fraction (log2)” value was 0.113.

As to “HMTFSDKIRELRKQKGVSQAVVAEYLGITKQAYSLYETGKREPDFDSLLKLAEYFGTDTDSLLY”, the “soluble fraction (log2)” value is -0.309.

For “HMTGEEVLIMLGEKMKLIRNYNGYSQRQIAEILKIERSTYASYETGRNRPDIFAVQRFAKIFNVSVDYIL”, the “soluble fraction (log2)” value is -0.118.

Take “HMTGELEVTAAGLSPEKLLNLAAKNHITLSNVKRLSYTQLSFRIGPADYNRLKKLLPEGRYKLNVGSS”: the “soluble fraction (log2)” value is -0.289.

Regarding “HMTGESIPFSKFLSEVDSGRVINVEIQGNNISGLLSDGNKFKTYSPNYPNLVEILSEKEVSIVATPLE”, the “soluble fraction (log2)” value is 0.0525.

Regarding “HMTGGLTQEQISQLRMLTPQQIEQLRQLQPQQVEMLRQLRPEQVMLLTQLEPQQIMAFMRLEPSVIMQL”, the “soluble fraction (log2)” value was -0.215.

As to “HMTGGMVTYIIEKGEGFFSLERKFGLSENELIKLNPSLKSGLKSEMQINIPKENYDRYVASS”, the “soluble fraction (log2)” value is -0.0276.

Consider “HMTGIESVKPSSDFTVEGNRIVAGDAEVEVYDLAGRKVNNNNLTTGVYIAKIAGSAESVKVFV”, for which the “soluble fraction (log2)” value turned out to be 0.0109.

Take “HMTGIQDVPALETRRVGNTFFFDRATDVQVYDLQGRLLQQARKVTSVSIGHLQQGVYVLTDGRASVKVQ”: the “soluble fraction (log2)” value was -1.23.

As for “HMTGIQLNDRERAILQHLSDGLTTKAIAERIFLREDTVKWYRKNLLARFEQPIVAALVKWAVLEGLV”, the “soluble fraction (log2)” value amounted to 0.141.

As to “HMTGIVVVDVVGQVGRPGLVSLPAGSRVADAITAAGGATPEADVSLLNQARLVIDGEQIRVPRPGEVIAA”, the “soluble fraction (log2)” value is -0.0367.

Consider “HMTGKVSHGERKSVLVSLAGSMRARGMSIDAVRAGLYADNEKRFDPPLDERDIEDVLNSAKKWGDP”, for which the “soluble fraction (log2)” value is -0.322.

Turning to “HMTGMDALIGRRVFVSEEILPGDAGGRVAVDGDSWRAISVGTAKPIPAGTEVRIHGYKSLILEVEPI”, the “soluble fraction (log2)” value was -0.162.

As to “HMTGQHFDLEDTDGNLVYEIDSTVPLKTFYIYDAMHTEIFRMTKELLHALPTYRFYLYGEPYGVLKKQ”, the “soluble fraction (log2)” value was -0.174.

Take “HMTGRVKWYDATKGFGFVTSDEGGDVFLPKGALPAGVADLKTGQRIEFGVVDSRKGAQALGVK”: the “soluble fraction (log2)” value turned out to be 0.337.

Turning to “HMTGSAETRGITLTDEQVTVWAKDGSWANYVYRATDGNWYDGSGRLYYENGGGEWTQAATGEQGS”, the “soluble fraction (log2)” value is -0.0258.

“HMTGSALDATIEKLLDLGSKAGSVTEDEIQIVLKNVDVTDAQLSSIYQFLRDRGVEIVSATEDDD”: the “soluble fraction (log2)” value stood at 0.0977.

On to “HMTGVPYLVRVKITDLHIRSGPGTNYASKGFIAPGAYTIVEESTGQGAALWGKLKSGKGWIALGYTEK”, for which the “soluble fraction (log2)” value is -1.09.

For the sequence “HMTHAISKTYAVTGEQLKNGFTLTHTFANGSTRRVDVYPGSRSGKVIAVRNTTDDTTEWIRIVEG”, the “soluble fraction (log2)” value came out at 0.0444.

As to “HMTHSEYVGRHGIAATSLRPAGAATIDGSRVDVVTSGEYIEKGTPIEVMTVNGSTVRVKAVPQIP”, the “soluble fraction (log2)” value stood at 0.0508.

For “HMTIDANAIEKMVLDLIGEHPNEWGRYRDGDKKVQGFFVGQIMKATSGQADGKIVNQILSQHAEA”, the “soluble fraction (log2)” value was -0.115.

As to “HMTIELAEGQHFLQISKSGAPMGNVVRDLIIQTLKITNGNQIKAAKILGISRAKLRYRIEQLGINITGKNI”, the “soluble fraction (log2)” value was -2.67.

“HMTIERVKIKETPTGWLRVRETPDNNGSEIGRANVGEIYELLGSKGEWYHIVYKGKQGFISTKYAEKVL”: the “soluble fraction (log2)” value is -0.22.

Regarding “HMTIGEALLNLRKQLGLNQTEMAANVVSTSFYSKVERNIHDIGTKDLLQILNKHQINATYFFENLN”, the “soluble fraction (log2)” value is -1.91.

On to “HMTIHVMEIKSLLPIKILDESQHLVQSFSSKNPTSYNYRLIFSDKSKLENIKKTINENKDVESIEIRYA”, for which the “soluble fraction (log2)” value was -0.816.

Turning to “HMTILTSSQRKALISKMIRQGGVESQSHLVKLLAREGVKVTQATASRDLEDLGATRVRDANGEFQYVIP”, the “soluble fraction (log2)” value was -0.271.

As for “HMTINQIDPASGRKVGYWIITGEMKPKEGFSPDNKIEEGIYVNSRKSGKWIKYWPNGNVRSEIIYKNGR”, the “soluble fraction (log2)” value was -0.549.

In the case of “HMTITPEVIVNHFKNLDLFFTKNGNYYEFKKKGTENILFKYGIYKQKPNIFVKIQRYPISSLSDLERIPI”, the “soluble fraction (log2)” value is -0.844.

With “HMTIYLSENIKRLRLEKELTQETLSEFLGVTSQSVSNWERGESYPDITMLPEIADFFKVSVDELLGVNRAE”, the “soluble fraction (log2)” value was -0.889.

Regarding “HMTIYPFNPNYLKDYQAYRVGLSLKEIDALLDFRSSGQWINSAEDFQRITGVSDSVLEQLIPYFKFS”, the “soluble fraction (log2)” value is -2.49.

“HMTKASYKITTPSGVNVREGAGKRYAVRKAYPKGKTVTVTQTKEVNGNLWGKTSDGWFAIKYQGAVYASA”: the “soluble fraction (log2)” value was -0.97.

As to “HMTKDEFLTTLRTLIQDMPPEDRRDVMNYYTEYFEDAGPEREQEVLRQLGSPEQVAREVLGG”, the “soluble fraction (log2)” value was -0.0225.

On to “HMTKDVIEIVDGNKFVFHKTIATDSVSSVINKYHISEADFRTWNELTGDMKVGEEYIVQLSLH”, for which the “soluble fraction (log2)” value is -1.26.

With “HMTKKFQIQTLDKLNVRKVADWNASAVTTVKKGQILDVVAEVSPKNGSTKMYKLESGLYITASEKYVKKQG”, the “soluble fraction (log2)” value came out at 0.0509.

As for “HMTKLPLLVELSRIIPTDTWVKKIKFSLGSVEFVGISKSASRLLPIVENSSYFHDTKFIGTIVT”, the “soluble fraction (log2)” value is -0.486.

“HMTKNIIVTTSVKTSDELVEVAKNHALNLELDFNYRNKKTIKELLSSFDGLVVIYKNKISYFEDNSELF”: the “soluble fraction (log2)” value stood at 0.0798.

Regarding “HMTKQDYLTALQQELNKNAVADAEDIVSEYEQHFQFKLADGFTEEEIAAKLGAPAQIALQFAG”, the “soluble fraction (log2)” value is 0.167.

“HMTKQRSIILDLLKANQDRHLTAEEMLELLNQNHTPVSKATLYRYLDMLVSQNAVRKFIIDDQPSAGYQYL”: the “soluble fraction (log2)” value was -1.34.

For the sequence “HMTKSTSMDLGGFMIVEGSETVRLGGQILQKDVDYTIDYFSGKINFISEEALNPGAEISVSYEENQ”, the “soluble fraction (log2)” value is -0.187.

Turning to “HMTKTEFLEALRRALNGNMAAASVEDNLKFYENYFYSEEAKGRSEAAVLSELGDPRILARTLIDAAER”, the “soluble fraction (log2)” value amounted to 0.0765.

With “HMTKTEFLNLLEQRLFVLNDNERADLLSEYKQHIEMKIQSGLSEEEAIADFGDPEELIKELLEAY”, the “soluble fraction (log2)” value is -0.33.

As to “HMTKTFDSPEDADNDVLAKTLFQIFGVQSVYLKENFVTITKSNSVGWHTLMEKTGHTLEEHLKF”, the “soluble fraction (log2)” value was 0.0987.

Regarding “HMTKTKFLSKDMILSAMSRTKSNRAAARYLSVSFVHYKKYAREYKDETSGVSLWEKHKNQSGTGIPK”, the “soluble fraction (log2)” value is -1.92.

With “HMTKTSQEDEDIMRHLDELHTRWPFLGQRKLIEELKDQGIQIGRKRLRRLMKVMGIEAIAPK”, the “soluble fraction (log2)” value was -1.29.

Take “HMTKVMVPNVVGMSRGEAEEALRGVKLQVDLKREVSDDPEVKPEEVLRQTPDAQTSVPQGSVVTLYVADKP”: the “soluble fraction (log2)” value is 0.355.

As for “HMTKYEKKIFEIVNASRDHLTAEQVLAALREEYPAVSQATVYNNLKKLTSDGLLRKLTLADSPDRYD”, the “soluble fraction (log2)” value was -0.208.

In the case of “HMTLAAATESREYLADLARRLDAADHGDKTRIKAEAAGLLGWSMATLHARLARDVGWTSGRK”, the “soluble fraction (log2)” value is -0.0944.

As to “HMTLDEFTDLMNLFKTGHIEQKPVILYGYNYWTSLKSWFEFNNMKFPEMYIDGIINTVDEFKILYNKIF”, the “soluble fraction (log2)” value is -0.982.

“HMTLGPKQMGEAIIKNLKEKTGKSLEEWSQRILIHELTDKKEIIDFLKNDNGLGHFQALKIFEHLNGK”: the “soluble fraction (log2)” value was -0.02.

With “HMTLGQHIQALRKEAGYSQEALGEALGVTRQSISKWESDQAIPEVDKLVTLSRLFQVPVGVLLQVEQP”, the “soluble fraction (log2)” value is -0.16.

As for “HMTLGSVRTVRQVLDDGRLLVADSGGNVTLVRRAGTLAKENVNTGDRVSVDSSVRFALTLIPV”, the “soluble fraction (log2)” value was -0.0338.

Regarding “HMTLPEKSKRLFSQDDFWDQIFYRIGEGQSLREVSKYYKIPYTTIHDRIHSDEGIKLKYLEALTS”, the “soluble fraction (log2)” value was -0.71.

“HMTLPQEPTVLPRPLRVGDTVHIRTLDKDAEVLALPDARGMVAVRAGIINTKVKLTDLTLVEEK”: the “soluble fraction (log2)” value came to 0.179.

For the sequence “HMTLRDRDQALEELWGQLADVPMDSETERLLEPFMGWGVGVSRDEIWHWFDRRHSKGIGHLLYS”, the “soluble fraction (log2)” value was -1.55.

Take “HMTLSENEKIIVDTIMKYQPLHIDVLNQQVKVDFYTLLGLLTKLEMEGIVLKNPGNIYKINTL”: the “soluble fraction (log2)” value was -0.346.

Turning to “HMTLTPEQQAARRSEIVDIALRLIAENGFQKTSMREIADLAKMGKSSLYDFFKTKDEIAVYAMEKK”, the “soluble fraction (log2)” value is -0.283.

On to “HMTMEFGEFLAKLRKERGYYQKEVAAYLNVTVATISNYEKNVHAPDLDTLVKLADFYDVSTDYLLQRT”, for which the “soluble fraction (log2)” value is -2.98.

As for “HMTMGAAEAQALKDEALELYRTGGTQEDVVRAIEMYEQAAEAGNAQAASDLAYLKANGVYETAMNN”, the “soluble fraction (log2)” value was found to be 0.268.

Take “HMTMQQGTISRLNHSRGFGFLTTPDGEDLFFHRTNVHETPFARLQVGDRVTYDVQVTPRGTRADKVQLNM”: the “soluble fraction (log2)” value is -0.0328.

Turning to “HMTMRFVVADGQNFGSIAQSKALEAVKKGNTEFNYKDVDYTVDIQSDDFYVVYQGRDIMGYASR”, the “soluble fraction (log2)” value was -2.

As for “HMTMTIEITVNGKTKTLVAELSLADLLRDLGMTKGRIAVELNGHIVPRSQFSSKTISNLDSIEIVQ”, the “soluble fraction (log2)” value was -3.23.

Turning to “HMTNADRYIGQEATVTEKISNELSTGAVRIGGLVWTARTVDNSEAEEGERVTVEAIEGAKLLVKRR”, the “soluble fraction (log2)” value is -0.0108.

As to “HMTNEPRLTNMGFNKMLIENYKMILEYQDFFIRISTQIGIININGFDLKLGEMTADEVLVTGKIESIDL”, the “soluble fraction (log2)” value worked out at 0.53.

On to “HMTNIDRLIGQTAIVKETINNKKEQGVVRINGMDWTARTEEIDEVILKGKPVEILDIQGIKLIVRKK”, for which the “soluble fraction (log2)” value is -0.153.

In the case of “HMTNIELYQRLLNLGFTPAQAKILLVQYDETRLTDNLNYVDFKKQQGNIENLPAYTTTIIKKDVRL”, the “soluble fraction (log2)” value was -0.389.

For the sequence “HMTNIQFINLKMTDNHPWIHQYIKDIILPPQTRIVMIKRNDIKTIPKGERRIEKDDELILSAFESQT”, the “soluble fraction (log2)” value was -1.
